Experimental data as given in paper PMC2196380.

Target: HLA-DM (DMα/DMβ heterodimer) (human (endogenous in B-LCL)) (UniProt P28067)
Experiment: co-IP

Sequence of UniProt P28067 (P28067 27-261, chain 1 of 2): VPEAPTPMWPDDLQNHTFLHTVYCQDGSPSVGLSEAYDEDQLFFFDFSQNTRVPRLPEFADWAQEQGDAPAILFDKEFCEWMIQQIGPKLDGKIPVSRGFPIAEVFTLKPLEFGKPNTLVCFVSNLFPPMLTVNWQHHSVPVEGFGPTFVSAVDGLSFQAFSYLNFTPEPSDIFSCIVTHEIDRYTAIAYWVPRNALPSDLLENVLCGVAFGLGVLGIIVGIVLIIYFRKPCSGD
Sequence of UniProt P28067 (P28068 19-263, chain 2 of 2, further chain): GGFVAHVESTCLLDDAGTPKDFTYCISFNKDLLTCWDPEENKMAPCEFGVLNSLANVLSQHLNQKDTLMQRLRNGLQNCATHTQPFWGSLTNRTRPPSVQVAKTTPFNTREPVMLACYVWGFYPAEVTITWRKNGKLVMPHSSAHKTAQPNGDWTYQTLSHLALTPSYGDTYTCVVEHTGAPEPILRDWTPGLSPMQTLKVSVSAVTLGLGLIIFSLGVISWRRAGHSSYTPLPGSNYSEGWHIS

wild-type HLA-DR3 αβCLIP complexes from T2.DR3 cells (from UniProt P01903 26-254) (peptide-MHC)
percent coprecipitated with DM: 14%
